From the supplement of paper PMC9732359
± gives the uncertainty stated by the source.

Test: protein stability index of a GFP-peptide fusion (yeast GPS) (PSI 1-4); higher = more stable; sorted into four equal gates, so the index is relative within each strain
Outline: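 Yeast carrying a pooled library were grown to mid-log phase in leucine-free medium. Each library plasmid expresses Cherry and has a tiled 17-residue yeast protein peptide fused downstream of GFP. Cells were sorted into four equal gates by GFP/Cherry ratio, and plasmids from each gate were PCR-amplified, Illumina-sequenced and assigned to strains by barcode. Summing, across gates, the read frequency times the gate number gave each peptide's protein stability index.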

Sequence	protein stability index (doa10∆)	protein stability index (pdr5∆)	protein stability index (san1∆)	protein stability index (ubr1∆)
ETANVASLNLLQLAPGA [RPL4A]	2.84 ± 0.14	3.02 ± 0.18	3.29 ± 0.078	3.27 ± 0.11
DRKSIMPLKILLATKQH [CSN12]	1.9 ± 0.15	1.19 ± 0.055	1.53 ± 0.11	1.42 ± 0.058
EDEEKILDNTENYDDTE [DSN1]	3.37 ± 0.088	3.33 ± 0.078	3.4 ± 0.058	3.44 ± 0.072
LASAIASGLLRAYLSHS [CSN12]	1.85 ± 0.045	1.5 ± 0.052	1.62 ± 0.071	1.4 ± 0.054
PESIDTILSSKLSNIWM [SRB2]	2.72 ± 0.08	2.78 ± 0.095	2.92 ± 0.054	2.91 ± 0.042
ATADTTHLHEALDIVCS [NUT1]	2.12 ± 0.056	2.55 ± 0.063	2.48 ± 0.12	2.69 ± 0.041
EVDKSKLITTYISLLKL [YDL116W/NUP84]	2.66 ± 0.08	1.45 ± 0.06	1.27 ± 0.13	1.43 ± 0.046
KGEMKGSAITGPVGKEC [RPL23A]	3.19 ± 0.065	2.98 ± 0.065	3 ± 0.051	3 ± 0.044
ELQGYIELSVPDRQSMD [SRB5]	1.36 ± 0.23	–	–	1.17 ± 0.21
LKESVEGEFNGDTIELA [PRE8]	3.12 ± 0.092	3.48 ± 0.11	3.4 ± 0.072	3.2 ± 0.073
YLYCLDNNITEMLEENF [YCG1]	2.3 ± 0.05	2.32 ± 0.046	2.63 ± 0.05	2.73 ± 0.039
KLREKVNDVELAFKKNE [MTW1]	3.1 ± 0.13	3.02 ± 0.13	3 ± 0.15	3.06 ± 0.21
KTSCVVEKRIGKIVSQR [RGR1]	2.76 ± 0.061	2.77 ± 0.048	3.12 ± 0.045	2.85 ± 0.036
LAFIPNILALNLVSLLI [YML031W/NDC1]	1.83 ± 0.073	1.38 ± 0.044	1.44 ± 0.098	1.73 ± 0.047
SIATKRFDAQTGSDREV [RPT3]	3.28 ± 0.13	3.17 ± 0.1	3.17 ± 0.077	3.48 ± 0.11
KTNIIEKAMDYAISIEN [RPN12]	3.13 ± 0.18	3.25 ± 0.12	2.95 ± 0.1	3.45 ± 0.12
GGKIINKLGNDPSLNLK [BRR2]	2.27 ± 0.059	1.76 ± 0.073	1.91 ± 0.072	2.16 ± 0.057
NILTTHLSHPGTNKDMI [ECM29]	2.61 ± 0.073	2.2 ± 0.067	2.15 ± 0.09	2.05 ± 0.044
DHHPEGLSAREAVKQAA [PRE10]	3.02 ± 0.095	2.53 ± 0.066	2.67 ± 0.082	2.69 ± 0.049
MAPVKSQESINQKLALV [RPL30]	2.05 ± 0.11	2.53 ± 0.14	2.18 ± 0.13	2.25 ± 0.061
ISMLVTQLQRGGTSDMN [CSI1]	3.19 ± 0.1	2.53 ± 0.12	2.5 ± 0.11	2.53 ± 0.067
IELSDGSTFKVNQEFIF [YJL039C/NUP192]	3.23 ± 0.088	3.07 ± 0.059	2.78 ± 0.061	3.13 ± 0.064
HIHDLEKFSPKSFISKL [SRP54]	1.81 ± 0.044	2.12 ± 0.042	2.14 ± 0.064	2.36 ± 0.028
MQPFDSGHDDLVHDVVY [YGL100W/SEH1]	3.23 ± 0.1	3.43 ± 0.11	3.13 ± 0.084	3.26 ± 0.093
VLIKMVKMLRDNPGYKA [SIR3]	3.34 ± 0.077	3.47 ± 0.068	3.47 ± 0.039	3.33 ± 0.036
IITSGRDTREVLEERER [ARP9]	3.41 ± 0.16	3.36 ± 0.14	3.52 ± 0.065	3.52 ± 0.1

Sequence	protein stability index (doa10∆)	protein stability index (pdr5∆)	protein stability index (san1∆)	protein stability index (ubr1∆)
PKDPSNVETYEQILQWV [BRR2]	2.77 ± 0.079	2.48 ± 0.098	2.91 ± 0.11	2.88 ± 0.12
ERKQIHEFKLIVGKKIQ [GRR1]	2.82 ± 0.045	2.58 ± 0.065	3.03 ± 0.06	3.13 ± 0.058
TSANGIVQFTYGGDGLD [RPO31]	2.68 ± 0.093	2.77 ± 0.092	2.24 ± 0.15	3.04 ± 0.064
MKYIQTEQQIEIPEGVT [RPL9B]	2.4 ± 0.059	2.8 ± 0.063	2.39 ± 0.064	2.64 ± 0.053
FDEGTTLLSPKDNGMLI [RPO21]	2.7 ± 0.066	2.45 ± 0.067	2.91 ± 0.061	1.96 ± 0.065
DLSYIEFLFESLKNDLP [ECM29]	2.84 ± 0.13	2.65 ± 0.14	2.78 ± 0.083	3.13 ± 0.12
EFIAAVNNPQEETSHLL [RPN10]	2.33 ± 0.12	3 ± 0.091	3 ± 0.14	2.82 ± 0.068
DDQCMLITTYSKLSKNI [SIN4]	1.97 ± 0.065	2.42 ± 0.076	1.87 ± 0.2	2.01 ± 0.038
SMCGFEVRILPRQRMEE [PRP8]	2.29 ± 0.057	1.87 ± 0.053	2.23 ± 0.063	2.24 ± 0.049
FNATVDETKGFDDNDSG [MED2]	3.14 ± 0.09	3.17 ± 0.078	3.25 ± 0.066	3.29 ± 0.078
KLNIETMRKISSETDDD [DSN1]	2.56 ± 0.074	2.27 ± 0.13	2.77 ± 0.12	–
YDRATLTQLLSMMSDGI [RPO31]	2.29 ± 0.062	2.44 ± 0.053	2.56 ± 0.054	1.66 ± 0.038
KEIKTNEYVIKTPVFTT [YMR129W/POM152]	2.1 ± 0.072	1.98 ± 0.056	1.88 ± 0.084	1.94 ± 0.042
AALFRLHKFLTKWGLIN [SWI3]	2.83 ± 0.22	–	2.94 ± 0.19	2.66 ± 0.23
KLYDKTENDIKALQSIG [RPT4]	2.65 ± 0.18	2.62 ± 0.2	1.87 ± 0.22	2.4 ± 0.22
NQFKRIDTLLYLMTYPQ [RET1]	1.4 ± 0.1	1.44 ± 0.11	1.48 ± 0.14	1.55 ± 0.067
SNEDVMMTGAEQDPYSN [RPB3]	3.09 ± 0.092	3.09 ± 0.079	3.19 ± 0.085	3.12 ± 0.073
AAIKDLDDFGEEELFEV [RRP43]	2.46 ± 0.11	2.49 ± 0.14	2.17 ± 0.13	–
DSLASELTLAEQQVKEA [SMC4]	3.24 ± 0.21	3.53 ± 0.11	3.23 ± 0.15	3.39 ± 0.23
STVKGSVDLEKLAFGLT [TAF14]	3.58 ± 0.13	3.45 ± 0.091	3.61 ± 0.057	3.67 ± 0.072
AKKLIQSLPPTLKVNRL [RPL38]	2.15 ± 0.039	2.2 ± 0.039	2.02 ± 0.048	2.27 ± 0.036
RKILKKTFKNPKYESLK [RPN5]	2.87 ± 0.094	2.96 ± 0.07	3.18 ± 0.094	3.19 ± 0.062
DSKKIKVDSPDDPFMTK [GAL11]	2.55 ± 0.075	2.57 ± 0.074	2.5 ± 0.057	2.82 ± 0.04
SSVVSEPKKPSFTFASS [YOR098C/NUP1]	3 ± 0.049	3.12 ± 0.038	3.01 ± 0.044	2.92 ± 0.034
STLLCTDLESKSRMINF [SNU114]	2.62 ± 0.05	2.96 ± 0.052	2.67 ± 0.044	2.79 ± 0.038
